Legend:
[1] = molecular target: T1, recombinant double-tagged VWF-A2 peptide
T1 chain: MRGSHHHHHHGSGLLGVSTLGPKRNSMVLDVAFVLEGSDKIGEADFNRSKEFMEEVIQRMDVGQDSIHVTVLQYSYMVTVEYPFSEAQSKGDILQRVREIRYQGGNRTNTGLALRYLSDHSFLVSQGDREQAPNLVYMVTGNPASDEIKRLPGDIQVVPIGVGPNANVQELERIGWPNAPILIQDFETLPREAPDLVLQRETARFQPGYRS

[2] = molecular target: T2, recombinant single-tagged VWF-A2 peptide
T2 chain: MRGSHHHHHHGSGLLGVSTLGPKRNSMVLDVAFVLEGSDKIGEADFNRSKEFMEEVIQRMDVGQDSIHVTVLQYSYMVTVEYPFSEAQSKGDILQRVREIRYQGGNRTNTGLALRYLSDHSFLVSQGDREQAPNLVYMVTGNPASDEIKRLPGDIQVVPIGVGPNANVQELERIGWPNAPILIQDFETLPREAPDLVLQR

B1: ADAMTS-13 (protein)
chain: AAGGILHLELLVAVGPDVFQAHQEDTERYVLTNLNIGAELLRDPSLGAQFRVHLVKMVILTEPEGAPNITANLTSSLLSVCGWSQTINPEDDTDPGHADLVLYITRFDLELPDGNRQVRGVTQLGGACSPTWSCLITEDTGFDLGVTIAHEIGHSFGLEHDGAPGSGCGPSGHVMASDGAAPRAGLAWSPCSRRQLLSLLSAGRARCVWDPPRPQPGSAGHPPDAQPGLYYSANEQCRVAFGPKAVACTFAREHLDMCQALSCHTDPLDQSSCSRLLVPLLDGTECGVEKWCSKGRCRSLVELTPIAAVHGRWSSWGPRSPCSRSCGGGVVTRRRQCNNPRPAFGGRACVGADLQAEMCNTQACEKTQLEFMSQQCARTDGQPLRSSPGGASFYHWGAAVPHSQGDALCRHMCRAIGESFIMKRGDSFLDGTRCMPSGPREDGTLSLCVSGSCRTFGCDGRMDSQQVWDRCQVCGGDNSTCSPRKGSFTAGRAREYVTFLTVTPNLTSVYIANHRPLFTHLAVRIGGRYVVAGKMSISPNTTYPSLLEDGRVEYRVALTEDRLPRLEEIRIWGPLQEDADIQVYRRYGEEYGNLTRPDITFTYFQPKPRQAWVWAAVRGPCSVSCGAGLRWVNYSCLDQARKELVETVQCQGSQQPPAWPEACVLEPCPPYWAVGDFGPCSASCGGGLRERPVRCVEAQGSLLKTLPPARCRAGAQQPAVALETCNPQPCPARWEVSEPSSCTSAGGAGLALENETCVPGADGLEAPVTEGPGSVDEKLPAPEPCVGMSCPPGWGHLDATSAGEKAPSPWGSIRTGAQAAHVWTPAAGSCSVSCGRGLMELRFLCMDSALRVPVQEELCGLASKPGSRREVCQAVPCPARWQYKLAACSVSCGRGVVRRILYCARAHGEDDGEEILLDTQCQGLPRPEPQEACSLEPCPPRWKVMSLGPCSASCGLGTARRSVACVQLDQGQDVEVDEAACAALVRPEASVPCLIADCTYRWHVGTWMECSVSCGDGIQRRRDTCLGPQAQAPVPADFCQHLPKPVTVRGCWAGPCVGQGTPSLVPHEEAAAPGRTTATPAGASLEWSQARGLLFSPAPQPRRLLPGPQENSVQSSACGRQHLEPTGTIDMRGPGQADCAVAIGRPLGEVVTLRVLESSLNCSAGDMLLLWGRLTWRKMCRKLLDMTFSSKTNTLVVRQRCGRPGGGVLLRYGSQLAPETFYRECDMQLFGPWGEIVSPSLSPATSNAGGCRLFINVAPHARIAIHALATNMGAGTEGANASYILIRDTHSLRTTAFHGQQVLYWESESSQAEMEFSEGFLKAQASLRGQYWTLQSWVPEMQDPQSWKGKEGT
cleavage of double-tagged VWF-A2 peptide, ELISA (loss of Tag-100 signal) [1]: the specific cleavage activity by ADAMTS-13 on the VWF-A2 peptide was also demonstrated using three different dilutions of partially isolated ADAMTS-13 (275 µg/mL of total protein) (FIG. 5B)
cleavage of double-tagged VWF-A2 peptide, immunoblot [1]: The cleavage of the double-tagged VWF-A2 peptide by ADAMTS-13 was efficiently detected by immunoblotting
cleavage of VWF-A2 protein, immunoblot (16 kDa band) [2]: Healthy plasma (FIG. 2, lane 1), and partially isolated ADAMTS-13 (FIG. 2, lane 3) produced the expected band of 16 kDa
cleavage of recombinant single-tagged VWF-A2 (16 kDa band) [2]: After one hour incubation, proteolysis by plasma from a healthy individual and the partially isolated enzyme produced the expected 16 kD band corresponding to the sequence 1481-1605 of SEQ ID NO:8 plus the 12 amino acid residues from the His-tag
